Laboratory results as given in paper PMC4072508, “Genome-Wide Prediction and Validation of Peptides That Bind Human Prosurvival Bcl-2 Proteins” (PLoS Computational Biology, 2014).

T1: Bfl-1, Q16548
T1 chain: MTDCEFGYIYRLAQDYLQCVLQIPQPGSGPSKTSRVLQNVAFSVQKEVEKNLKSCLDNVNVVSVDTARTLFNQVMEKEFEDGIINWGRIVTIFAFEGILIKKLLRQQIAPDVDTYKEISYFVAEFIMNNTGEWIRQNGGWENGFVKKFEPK

T2: Mcl-1, Q07820
T2 chain: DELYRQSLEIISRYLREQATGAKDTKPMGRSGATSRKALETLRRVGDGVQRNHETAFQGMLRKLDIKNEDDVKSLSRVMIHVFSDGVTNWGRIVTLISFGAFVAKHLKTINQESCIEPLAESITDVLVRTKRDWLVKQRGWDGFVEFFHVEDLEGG


Assays:
Assay in all cases: peptide SPOT array, c-Myc-tagged receptor at 1 uM or 100 nM, anti-c-Myc-Cy3
[1] = molecular target: Bcl-xL, Q07817
Chain of Bcl-xL, Q07817 (Q07817 1-209): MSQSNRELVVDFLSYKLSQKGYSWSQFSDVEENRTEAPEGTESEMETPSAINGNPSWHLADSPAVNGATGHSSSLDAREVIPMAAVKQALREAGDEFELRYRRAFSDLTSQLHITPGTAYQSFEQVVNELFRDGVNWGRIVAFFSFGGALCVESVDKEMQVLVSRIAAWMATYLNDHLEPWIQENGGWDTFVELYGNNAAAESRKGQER

[2] = molecular target: T1, Bfl-1, Q16548
[3] = molecular target: T2, Mcl-1, Q07820

SPOT signal as a fraction of Bim BH3's signal on the same receptor and array [1] | SPOT signal as a fraction of Bim BH3's signal on the same receptor and array [2] | SPOT signal as a fraction of Bim BH3's signal on the same receptor and array [3] | Binder
0.88 | 0.34 | 0.31 | SDIRDDISEQVRHVLRTVRGHPRKKL [TMEM184C]
0.06 | 0.03 | 0.04 | MSILTIASAVDEFVGDGIYNNTMGHV [TAP1]
0.09 | 0.05 | 0.05 | VTLLSEVEKMDSNFGDCVQYKEIVKN [SYNE1]
2.49 | 1.48 | 1.44 | GTAVAYRGAHLRGRLRAVYNTFRAAP
0.06 | 0.03 | 0.04 | ADVHGIWSRLDCDFGDEFEVLDTTGE [UBA6]
0.07 | 0.05 | 0.06 | RKDAELLCWDLRQSGYPLWSLGREVT
0.09 | 0.05 | 0.07 | RKDAELLCWDLRQSLYPLWSLGREVT
0.06 | 0.04 | 0.04 | DSLLWKLAGLDRESGDVVLSGCSTLS [STK11IP]
0.08 | 0.08 | 0.09 | QRKHEGFERDDAALGDKVNSLGETAE [SPTAN1]
2.82 | 1.26 | 1.6 | GTAVAYRGAHLRGRGRAVYNTFRAAP

Second part, the binder before the results:

Binder | SPOT signal as a fraction of Bim BH3's signal on the same receptor and array [1] | SPOT signal as a fraction of Bim BH3's signal on the same receptor and array [2] | SPOT signal as a fraction of Bim BH3's signal on the same receptor and array [3]
LALLAQPSHLMRQVARSVFGHICSHL [MYBBP1A] | 0.96 | 0.57 | 0.57
AELRLFLAQRLRWLLDSCPASRATCV [NBEAL2] | 0.52 | 0.53 | 0.72
YFKLFRASGDDRTNGDNYLYEIQLSS [IGF2R] | 0.25 | 0.29 | 0.28
NGGLLEFHKSLQEIGDKNDHWFDIDP [DZIP3] | 0.11 | 0.04 | 0.04
SGLPGLSSVDDNNFGDSINESEGIPL | 0.08 | 0.04 | 0.03
RAKASSLSEELKHFLDGLETDGTLQK [DSN1] | 0.26 | 0.17 | 0.18
LCQLSCVSKLMRDVLGSLLQSRGMVI [FBXO30] | 0.38 | 0.38 | 0.26
AGYELLIQKFDSLYGDQIDMHRKFVV [ISOC1] | 0.08 | 0.05 | 0.07
QAGPVSSGLADRKLGDRVQLLNLLVT [CCDC57] | 0.1 | 0.07 | 0.07
QASREAGAAALRNVLQRLFENYQTQS [CCDC68] | 0.28 | 0.18 | 0.2
SGLPGLSSVDINNFLDSINESEGIPL | 0.11 | 0.04 | 0.04
HHSSQEMSSEYREYADSFGKCPGGRN [PCYT2] | 0.05 | 0.03 | 0.04
GSPDSMFGISDAVLGDLNQDGFPDIA [ITGA7] | 0.07 | 0.08 | 0.03
KGTAVAICRRLGIFGDTEDVAGKAYT [ATP2A3] | 0.23 | 0.25 | 0.19
ACGDSVLARMLRELLDSLRRPQLRLW [SLC19A1] | 0.71 | 0.33 | 0.28
RLRQLGVAKKDGVLSDNFKGKRIVLV [PPAT] | 1.16 | 0.44 | 0.68
AEVMRQRGINMRYLGKVLELVLRSPA [KIAA0664] | 0.94 | 0.52 | 0.69
PKKKMTLSEIYQWICDNFPYYREAGS [FOXJ3] | 0.33 | 0.12 | 0.22
FGEYSGISENIILVLDDFWIPETSFI [ROS1] | 0.07 | 0.04 | 0.06
VLELHPGAQRLHIGLDEVYYLGEGEA [HEXDC] | 0.06 | 0.04 | 0.05
MRPEIWIAQELRRILDEFNAYYARRV [BCL2L11] | 0.1 | 0.05 | 0.05
TVATRRLSGFLRTLLDRLEGTKELLS [MINA] | 0.31 | 0.21 | 0.29
